The results in this text go back to US20230391872A1 (ANAPTYSBIO, published 2023).

This assay has as its target T1, cynomolgus monkey BTLA on cells (stably transfected 293c18 clone 1G5); cynomolgus peripheral blood T and B … (cynomolgus monkey, UniProt A0A2K5W7M7 31-289).
T1 construct: whole, on cells; also called cynomolgus monkey BTLA 293c18 cells
T1 sequence: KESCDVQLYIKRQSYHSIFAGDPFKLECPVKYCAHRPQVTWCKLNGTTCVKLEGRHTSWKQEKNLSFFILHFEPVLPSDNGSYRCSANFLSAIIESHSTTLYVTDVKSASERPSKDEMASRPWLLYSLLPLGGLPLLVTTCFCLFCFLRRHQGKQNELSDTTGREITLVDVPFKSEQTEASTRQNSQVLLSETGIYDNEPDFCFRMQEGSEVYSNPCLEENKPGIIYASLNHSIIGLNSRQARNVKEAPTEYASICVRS
Description: flow cytometry (MFI) on 293c18 cells stably expressing cynomolgus monkey BTLA, goat anti-human kappa-PE detection, four-parameter fit [right panel (Cy BTLA 293c18 cells), EC50 box]. Here is the method: 293c18 cell clone 1E4 stably expressing human BTLA construct or clone 1G5 stably expressing cynomolgus monkey BTLA were harvested with Accutase solution (Millipore Sigma/Sigma-Aldrich) and washed once with Phosphate-Buffered Saline, 1% BSA. 293c18 cynomolgus monkey BTLA cells were loaded with the lipophilic carbocyanine dye, DiD (2 μM, 1,1′-dioctadecyl-3,3,3′,3′-tetramenthylindodicarbocyanine; ThermoFisher Scientific) by rocking gently for 10 minutes at room temperature. DiD-stained cells were washed in PBS, 1% BSA and equal amounts of human BTLA 293c18 cells and cynomolgus monkey BTLA 293c18-DiD-stained cells were mixed. Cells (2×10⁵ total cells/sample) were incubated with the indicated concentrations of purified 6G3 IgG4 (two production lots, APE10840.03 and APE10840.04 (H Chain SEQ ID NO: 144, L Chain SEQ ID NO: 174)) or human IgG4 isotype control antibody specific for hen egg lysozyme with gentle shaking for 10 minutes at 4° C. in FACS buffer (PBS, 1% BSA, 0.02% sodium azide). […] Cells were washed and resuspended in FACS buffer and analyzed for fluorescence on a BD FACSArray (BD Biosciences). DiD stained cells expressing cynomolgus monkey BTLA (FIG. 3) were analyzed for median fluorescence intensity (MFI) separately from cells expressing human BTLA (FIG. 3). […]
Background: A flow cytometer gives signals particle by particle.

B1: 6G3 IgG4 anti-BTLA antibody (APE10840 / APE12839 / APE13308) (antibody, V domains shown)
VH: QVQLVQSGAEVKKPGSSVKVSCKASGYVFSTSWMNWVRQAPGQGLEWMGRIYPGDADTNYVGKFKGRVTITADKSTTTAYMELSSLRSEDTAVYFCAKSGTFNFGNYRWYFDVWGKGTTVTVSS
VL: AIQLTQSPSSLSASVGDRVTITCRVSENIYSHLAWYQQKPGKAPKLLIYAATNLALGVPSRFSGSGSGTDYTLTISSLQPEDFATYYCQLFWGPPLTFGGGTKVEIKR
notes: Humanized antibody from a mouse hybridoma, tested as human IgG4 (detected with anti-human kappa); Some assays used labelled lots (DyLight 650, AF647, biotin, DyL488); also called 6G3 antibody; APE10840.03
In general, EC50 refers to the concentration at which the effect is half-maximal. For B1, the EC50 was 2.3 nM.
